Assays:
Experiment in all cases: SPOT array
[1] = biological target: T1, Lsb4, P32793; conditions: median of control spots 397
T1 sequence (P32793 402-468, looked up): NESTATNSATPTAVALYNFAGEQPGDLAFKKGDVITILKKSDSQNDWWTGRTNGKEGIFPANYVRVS

[2] = biological target: T2, Sla1-2, P32790; conditions: median of control spots 712
T2 sequence (P32790 60-140, looked up): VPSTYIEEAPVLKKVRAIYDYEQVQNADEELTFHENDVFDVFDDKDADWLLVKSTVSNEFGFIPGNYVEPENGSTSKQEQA

[3] = biological target: T3, Lsb1, P53281; conditions: median of control spots 388
T3 sequence (P53281 45-122, looked up): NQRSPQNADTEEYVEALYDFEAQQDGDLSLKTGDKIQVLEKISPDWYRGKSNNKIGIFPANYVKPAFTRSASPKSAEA

[4] = biological target: Bem1-1, P29366; conditions: median of control spots 4282
[5] = biological target: T4, Bzz1-1, P38822; conditions: median of control spots 4446
T4 sequence (P38822 478-572, looked up): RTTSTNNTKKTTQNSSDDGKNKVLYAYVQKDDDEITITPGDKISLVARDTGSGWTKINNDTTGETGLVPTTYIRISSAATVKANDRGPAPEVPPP

[6] = biological target: T5, Hof1, Q05080; conditions: median of control spots 4086
T5 sequence (Q05080 590-669, looked up): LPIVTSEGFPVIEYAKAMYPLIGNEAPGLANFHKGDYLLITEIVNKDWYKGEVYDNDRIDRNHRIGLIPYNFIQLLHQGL

[7] = biological target: T6, Lsb3, P43603; conditions: median of control spots 406
T6 sequence (P43603 385-451, looked up): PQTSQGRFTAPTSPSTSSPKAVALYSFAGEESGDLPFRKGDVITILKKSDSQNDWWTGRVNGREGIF

[8] = biological target: T7, Fus1, P11710; conditions: median of control spots 1200
T7 sequence (P11710 432-512, looked up): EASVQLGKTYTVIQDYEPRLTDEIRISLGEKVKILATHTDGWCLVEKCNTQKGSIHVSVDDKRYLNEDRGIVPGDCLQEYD

[9] = biological target: T8, Myo5, Q04439; conditions: median of control spots 471
T8 sequence (Q04439 1072-1160, looked up): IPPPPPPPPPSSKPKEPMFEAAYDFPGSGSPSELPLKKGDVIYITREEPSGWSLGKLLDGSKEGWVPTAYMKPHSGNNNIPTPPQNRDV

[10] = biological target: T9, Pin3, Q06449; conditions: median of control spots 2171
T9 sequence (Q06449 53-122, looked up): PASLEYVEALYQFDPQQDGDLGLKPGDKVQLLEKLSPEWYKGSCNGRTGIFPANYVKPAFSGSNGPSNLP

[11] = biological target: T10, Abp1, P15891; conditions: median of control spots 935
T10 sequence (P15891 535-592, looked up): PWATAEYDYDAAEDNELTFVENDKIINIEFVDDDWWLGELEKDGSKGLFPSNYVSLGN

[12] = biological target: T11, Bzz1-2, P38822; conditions: median of control spots 4538
T11 sequence (P38822 568-633, looked up): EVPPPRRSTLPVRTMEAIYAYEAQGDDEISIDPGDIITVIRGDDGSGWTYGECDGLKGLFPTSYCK

[13] = biological target: T12, Cdc25, P04821; conditions: median of control spots 969
T12 sequence (P04821 50-136, looked up): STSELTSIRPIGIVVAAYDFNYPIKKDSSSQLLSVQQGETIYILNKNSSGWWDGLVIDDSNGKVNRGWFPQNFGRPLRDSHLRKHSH

[14] = biological target: Sho1, P40073; conditions: median of control spots 1148
[15] = biological target: T13, Hse1, P38753; conditions: median of control spots 1727
T13 sequence (P38753 208-285, looked up): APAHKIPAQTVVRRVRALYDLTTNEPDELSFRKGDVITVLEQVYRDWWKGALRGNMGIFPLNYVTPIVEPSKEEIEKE

[16] = biological target: T14, Sla1-3, P32790; conditions: median of control spots 5475
T14 sequence (P32790 344-424, looked up): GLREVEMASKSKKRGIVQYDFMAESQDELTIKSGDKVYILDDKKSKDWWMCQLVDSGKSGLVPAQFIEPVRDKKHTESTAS

[17] = biological target: T15, Pex13, P80667; conditions: median of control spots 1341
T15 sequence (P80667 295-386, looked up): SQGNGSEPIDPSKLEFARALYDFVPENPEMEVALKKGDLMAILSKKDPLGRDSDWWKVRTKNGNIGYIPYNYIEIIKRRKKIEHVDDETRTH

[18] = biological target: T16, Bud14, P27637; conditions: median of control spots 956
T16 sequence (P27637 247-328, looked up): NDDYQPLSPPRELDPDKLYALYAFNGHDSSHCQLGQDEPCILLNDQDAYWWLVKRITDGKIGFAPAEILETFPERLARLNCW

[19] = biological target: T17, Bbc1, P47068; conditions: median of control spots 796
T17 sequence (P47068 1-78, looked up): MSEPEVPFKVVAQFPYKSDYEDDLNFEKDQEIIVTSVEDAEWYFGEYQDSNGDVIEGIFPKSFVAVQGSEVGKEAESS

[20] = biological target: Bem1-2, P29366; conditions: median of control spots 4347
[21] = biological target: T18, Nbp2, Q12163; conditions: median of control spots 357
T18 sequence (Q12163 103-180, looked up): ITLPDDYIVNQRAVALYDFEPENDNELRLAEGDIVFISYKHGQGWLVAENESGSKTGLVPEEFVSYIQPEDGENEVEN

[22] = biological target: T19, Cyk3, Q07533; conditions: median of control spots 1451
T19 sequence (Q07533 1-83, looked up): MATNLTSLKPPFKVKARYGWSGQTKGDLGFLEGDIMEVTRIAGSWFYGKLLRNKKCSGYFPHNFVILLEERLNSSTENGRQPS

[23] = biological target: GST; conditions: median of control spots 978
[24] = biological target: T20, Boi2, P39969; conditions: median of control spots 1161
T20 sequence (P39969 32-116, looked up): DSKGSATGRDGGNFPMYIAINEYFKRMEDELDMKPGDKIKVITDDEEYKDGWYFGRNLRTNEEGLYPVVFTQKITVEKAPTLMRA

[25] = biological target: Myo3, P36006; conditions: median of control spots 468
[26] = biological target: Rvs167, P39743; conditions: median of control spots 2707
[27] = biological target: T21, Boi1, P38041; conditions: median of control spots 1162
T21 sequence (P38041 1-86, looked up): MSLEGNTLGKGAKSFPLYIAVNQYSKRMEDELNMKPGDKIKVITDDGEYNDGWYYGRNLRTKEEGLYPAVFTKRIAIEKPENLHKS

Sequence of Sho1, P40073 (P40073 287-367): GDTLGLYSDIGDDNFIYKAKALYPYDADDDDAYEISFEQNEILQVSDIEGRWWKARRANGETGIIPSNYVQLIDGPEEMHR
Sequence of Bem1-1, P29366 (P29366 55-141): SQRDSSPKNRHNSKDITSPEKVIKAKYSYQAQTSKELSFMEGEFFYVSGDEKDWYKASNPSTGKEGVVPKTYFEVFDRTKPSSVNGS
Sequence of Rvs167, P39743 (P39743 419-482): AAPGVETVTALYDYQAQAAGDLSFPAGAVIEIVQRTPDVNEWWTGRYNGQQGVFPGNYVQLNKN
Sequence of Bem1-2, P29366 (P29366 139-227): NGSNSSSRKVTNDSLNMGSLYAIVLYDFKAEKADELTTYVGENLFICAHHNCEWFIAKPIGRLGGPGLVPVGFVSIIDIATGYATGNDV

B1: unnamed (peptide)
chain: WTQRRGPLVVYAEDN
B1 was tested, and the SPOT intensity [1] was 1, the SPOT intensity [2] was 0 and the SPOT intensity [3] was 0. It also gave an SPOT intensity [4] of 0, an SPOT intensity [5] of 0 and an SPOT intensity [6] of 3. For the same binder, the SPOT intensity [7] was 0, the SPOT intensity [8] was 2 and the SPOT intensity [9] was 0. It also gave an SPOT intensity [10] of 32, an SPOT intensity [11] of 0 and an SPOT intensity [12] of 0. The SPOT intensity [13] was 1, the SPOT intensity [14] was 1 and the SPOT intensity [15] was 1. The SPOT intensity [16] was 18, the SPOT intensity [17] was 10 and the SPOT intensity [18] was 0. It also gave an SPOT intensity [19] of 0, an SPOT intensity [20] of 3 and an SPOT intensity [21] of 0. It also gave an SPOT intensity [22] of 0, an SPOT intensity [23] of 0 and an SPOT intensity [24] of 0. For the same binder, the SPOT intensity [25] was 0, the SPOT intensity [26] was 0 and the SPOT intensity [27] was 1.

B2: unnamed (peptide)
chain: RVTRKRPREPKSTND
Binder B2 has an SPOT intensity [1] of 10, an SPOT intensity [2] of 2 and an SPOT intensity [3] of 9. The SPOT intensity [4] was 2, the SPOT intensity [5] was 0 and the SPOT intensity [6] was 3. The SPOT intensity [7] was 5, the SPOT intensity [8] was 34 and the SPOT intensity [9] was 3. The SPOT intensity [10] was 3, the SPOT intensity [11] was 167 and the SPOT intensity [12] was 11. The SPOT intensity [13] was 28, the SPOT intensity [14] was 173 and the SPOT intensity [15] was 12. The SPOT intensity [16] was 47, the SPOT intensity [17] was 0 and the SPOT intensity [18] was 9. It also gave an SPOT intensity [19] of 217, an SPOT intensity [20] of 0 and an SPOT intensity [21] of 40. The SPOT intensity [22] was 4, the SPOT intensity [23] was 2 and the SPOT intensity [24] was 2. The SPOT intensity [25] was 19, the SPOT intensity [26] was 0 and the SPOT intensity [27] was 10.

B3: unnamed (peptide)
chain: FIRKRAPTPPAPSRS
Binder B3 has an SPOT intensity [1] of 26, an SPOT intensity [2] of 0 and an SPOT intensity [3] of 1190. For the same binder, the SPOT intensity [4] was 0, the SPOT intensity [5] was 52 and the SPOT intensity [6] was 6. For the same binder, the SPOT intensity [7] was 18, the SPOT intensity [8] was 13 and the SPOT intensity [9] was 4. For the same binder, the SPOT intensity [10] was 26, the SPOT intensity [11] was 259 and the SPOT intensity [12] was 522. The SPOT intensity [13] was 43, the SPOT intensity [14] was 90 and the SPOT intensity [15] was 76. It also gave an SPOT intensity [16] of 155, an SPOT intensity [17] of 27 and an SPOT intensity [18] of 10. For the same binder, the SPOT intensity [19] was 68, the SPOT intensity [20] was 800 and the SPOT intensity [21] was 219. For the same binder, the SPOT intensity [22] was 2, the SPOT intensity [23] was 0 and the SPOT intensity [24] was 0. It also gave an SPOT intensity [25] of 35, an SPOT intensity [26] of 4 and an SPOT intensity [27] of 3.

B4: unnamed (peptide)
chain: KIRRSSLMIPNPQQF
Work on B4 yielded an SPOT intensity [1] of 3, an SPOT intensity [2] of 4 and an SPOT intensity [3] of 12. It also gave an SPOT intensity [4] of 0, an SPOT intensity [5] of 1 and an SPOT intensity [6] of 0. It also gave an SPOT intensity [7] of 14, an SPOT intensity [8] of 21 and an SPOT intensity [9] of 11. The SPOT intensity [10] was 142, the SPOT intensity [11] was 105 and the SPOT intensity [12] was 0. For the same binder, the SPOT intensity [13] was 12, the SPOT intensity [14] was 47 and the SPOT intensity [15] was 1. The SPOT intensity [16] was 9, the SPOT intensity [17] was 30 and the SPOT intensity [18] was 5. It also gave an SPOT intensity [19] of 13, an SPOT intensity [20] of 3 and an SPOT intensity [21] of 0. For the same binder, the SPOT intensity [22] was 2, the SPOT intensity [23] was 3 and the SPOT intensity [24] was 1. For the same binder, the SPOT intensity [25] was 35, the SPOT intensity [26] was 0 and the SPOT intensity [27] was 2.

— paper PMC2756588
